Where “and” joins values, the source holds several entries; their conditions need not be identical. Equal entries are not always repeated.
Details: Bos taurus; pH 7; 25 °C; GdnHCl; CD; Sodium phosphate 20 mM; reversible: yes; whole UniProt chain shown

B1: Gamma-crystallin B wild type, P02526 (protein)
chain: MGKITFYEDRGFQGHCYECSSDCPNLQPYFSRCNSIRVDSGCWMLYERPNYQGHQYFLRRGDYPDYQQWMGFNDSIRSCRLIPQHTGTFRMRIYERDDFRGQMSEITDDCPSLQDRFHLTEVHSLNVLEGSWVLYEMPSYRGRQYLLRPGEYRRYLDWGAMNAKVGSLRRVMDFY
  denaturant m value: 1.3 kcal/mol/M
  unfolding free energy: 5.2 kcal/mol and 6.5 kcal/mol

Reference: FireProtDB (doi:10.1021/bi00454a022)
